Literature values as cited in paper PMC5472405.

Target: CXCR4 (Homo sapiens) (UniProt P61073)
Sequence (P61073 whole entry): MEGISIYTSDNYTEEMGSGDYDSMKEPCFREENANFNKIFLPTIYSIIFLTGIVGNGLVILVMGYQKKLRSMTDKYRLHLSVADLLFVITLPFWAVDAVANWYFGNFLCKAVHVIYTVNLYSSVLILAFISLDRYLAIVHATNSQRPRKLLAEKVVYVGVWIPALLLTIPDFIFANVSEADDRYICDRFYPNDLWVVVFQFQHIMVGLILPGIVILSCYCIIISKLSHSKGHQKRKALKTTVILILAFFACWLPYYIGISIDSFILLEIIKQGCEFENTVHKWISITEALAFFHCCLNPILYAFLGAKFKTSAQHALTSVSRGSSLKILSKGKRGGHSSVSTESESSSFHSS

CXCL14, sequence (O95715 35-111): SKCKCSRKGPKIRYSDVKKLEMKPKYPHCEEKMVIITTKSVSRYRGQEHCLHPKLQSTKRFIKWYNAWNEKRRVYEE

Kd: 14.7 nM
Substance: CXCL14 (from UniProt O95715)
